This note sets out measurements from publication PMC6385258.

For assay [1], the target named is EGF receptor (EGFR) (human (endogenous in MDA-MB-231, MCF-7, MDA-MB-468)) (UniProt P00533). Briefly: single-molecule counting of quantum dots by calibrated 3D deconvolution microscopy (QDC-3DM); unpatterned MDA-MB-468 cells (high EGFR expression); 1 nM QD-EGF for 5 min on ice; washed and fixed.
Assay [2] shares this target. Briefly: single-molecule counting of quantum dots by calibrated 3D deconvolution microscopy (QDC-3DM); unpatterned MDA-MB-231 cells; QD-EGF at 0.1, 1, 10 or 100 nM for 5 min on ice in serum-free DMEM with 0.8% BSA; washed and fixed.
The target is the same in assay [3]. Briefly: single-molecule counting of quantum dots by calibrated 3D deconvolution microscopy (QDC-3DM); MDA-MB-231 cells on fibronectin micropatterns; 1 nM QD744-EGF pulse for 5 min, washed, kept in serum-free medium; counted 10 and 30 min after the start of the pulse; also with gefitinib 0-5.1 µM.
Assay [4] shares this target. Briefly: flow cytometry on cells; MDA-MB-231 cells in suspension; QD-EGF 0.06-120 nM (EGF:QD = 0.33) or dye-EGF 0.02-40 nM; 4 °C, 4 h with rocking; PBS with 0.5% BSA; nonspecific binding measured with 2 µM unlabeled EGF and subtracted; one-site fit. (A flow cytometer gives signals particle by particle.)

Substance “QD-EGF conjugate: epidermal growth factor with a single N-terminal biotin bound to a streptavidin-conjugated quantum dot (ligand)” had a mean EGF bound per cell (1 nM QD-EGF) in assay [1] of 922 EGF per cell. In assay [2], the QD-EGF counts per cell (0.1, 1 and 10 nM QD-EGF) is 0 to 4000 per cell; the mean EGF bound per cell (1 nM QD-EGF) amounted to 80 EGF per cell. In assay [3], this substance came in with an EGF per cell (1 nM QD-EGF) of 1270 EGF per cell and a QD-EGF per cell 30 min after the start of a 5 min pulse of 800 per cell.
For the substance “EGF conjugated to a single tetramethylrhodamine dye (ligand)”, the dissociation constant (Kd) in assay [4] is 3.2 nM.

By Kd is commonly meant the free concentration of one partner at which half of the binding sites on the other are occupied at equilibrium, for simple one-to-one binding. A lower Kd goes with higher affinity.
